This passage reports Kd results from paper PMC9212699.

Test [1] addresses BA.2 RBD with the S408R mutation (SARS-CoV-2). As to the kind of experiment: SPR.
Test [2] addresses SARS-CoV-2 Omicron BA.3 RBD protein with His-tag, spike residues 319-541 (SARS-CoV-2). As to the kind of experiment: SPR.

pKd: −log10 of the molar value.

Human ACE2 protein, residues 19-615 (produced by HEK293F cells, used for SPR), sequence (Q9BYF1 19-615): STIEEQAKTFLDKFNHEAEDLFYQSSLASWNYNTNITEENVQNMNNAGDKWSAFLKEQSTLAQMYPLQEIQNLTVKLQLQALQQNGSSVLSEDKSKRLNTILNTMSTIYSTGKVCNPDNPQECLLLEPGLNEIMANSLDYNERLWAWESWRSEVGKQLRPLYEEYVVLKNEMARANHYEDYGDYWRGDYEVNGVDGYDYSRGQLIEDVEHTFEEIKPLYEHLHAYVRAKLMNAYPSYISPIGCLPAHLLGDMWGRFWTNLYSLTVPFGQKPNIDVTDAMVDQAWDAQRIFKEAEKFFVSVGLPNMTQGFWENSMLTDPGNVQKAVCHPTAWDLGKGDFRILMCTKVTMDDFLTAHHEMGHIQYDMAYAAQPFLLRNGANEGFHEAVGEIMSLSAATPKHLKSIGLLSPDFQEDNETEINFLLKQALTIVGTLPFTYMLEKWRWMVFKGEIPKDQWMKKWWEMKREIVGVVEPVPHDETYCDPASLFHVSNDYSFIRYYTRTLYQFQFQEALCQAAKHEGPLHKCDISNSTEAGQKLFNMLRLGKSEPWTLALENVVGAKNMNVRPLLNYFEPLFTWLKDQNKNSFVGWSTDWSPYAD

For “Human ACE2 protein, residues 19-615 (produced by HEK293F cells, used for SPR) (from UniProt Q9BYF1-1 19-615) (receptor)”, the figures for the pKd in test [1] and in test [2] were 7.79 and 7.66, respectively.

The term pKd denotes −log10 of the Kd, conventionally taken in molar units. Low values mean a high Kd, high ones a low Kd.
